Assay results taken from paper doi:10.1101/2022.02.08.479534, “FoxP3 can fold into two distinct dimerization states with divergent functional implications for T cell homeostasis” (bioRxiv, 2022).

T1: MBP-tagged FoxP3^RBR-forkhead (mouse, UniProt Q99JB6 284-423)
T1 construct: FoxP3, mouse, RBR-forkhead, residues 284-423; cloned into a modified pMAL-c2 vector; also called MBP-FoxP3^RBR-forkhead; His6-MBP fused FoxP3^RBR-forkhead; source: E. coli BL21(DE3), purified (Ni-NTA, Superdex 200)
T1 sequence (looked up): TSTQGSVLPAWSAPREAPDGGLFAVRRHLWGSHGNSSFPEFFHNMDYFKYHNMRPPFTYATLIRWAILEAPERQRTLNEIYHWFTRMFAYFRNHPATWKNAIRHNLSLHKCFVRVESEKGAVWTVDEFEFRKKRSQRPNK


What was measured:
[1] = target: the molecule itself; experiment: SEC-MALS; NusA-fused proteins on Superdex 200 Increase 10/300; 20 mM Tris pH 7.5, 500 mM NaCl, 2 mM DTT; miniDAWN MALS and Optilab dRI detectors
[2] = target: the molecule itself; experiment: cross-linking; 2 μM FoxP3^forkhead with 100 μM BMOE in 1x PBS, 1 h at 25°C, quenched with 10 mM DTT; SDS-PAGE, Krypton stain
[3] = target: T1, MBP-tagged FoxP3^RBR-forkhead; experiment: pull-down; MBP pull-down: MBP-FoxP3^RBR-forkhead 1 μM with GST-Runx1(371-451) 0.5 μM, with or without 2 μM DNA (IR-FKHM^4g or single FKHM), 30 min at room temperature in RIPA buffer; settings: both partners purified

Row | Binder | stoichiometry N [1] | other results
1 | NusA-tagged FoxP3^RBR-forkhead R337Q (domain or fragment, mouse, UniProt Q99JB6 284-423, looked up, FoxP3, mouse, RBR-forkhead, residues 284-423 with the IPEX mutation R337Q; R337Q is a mutation of human IPEX patients, here put into the mouse protein; also called R337Q FoxP3^RBR-forkhead; FoxP3^RBR-forkhead with R337Q; source: E. coli BL21(DE3), purified (Ni-NTA, Superdex 200), HRV3C cleavage omitted; not shown: His6, N-terminal, kept; NusA, N-terminal, kept) TSTQGSVLPAWSAPREAPDGGLFAVRRHLWGSHGNSSFPEFFHNMDYFKYHNMQPPFTYATLIRWAILEAPERQRTLNEIYHWFTRMFAYFRNHPATWKNAIRHNLSLHKCFVRVESEKGAVWTVDEFEFRKKRSQRPNK | 2 | 
2 | NusA-tagged FoxP3^RBR-forkhead Y373V (domain or fragment, mouse, UniProt Q99JB6 284-423, looked up, FoxP3, mouse, RBR-forkhead, residues 284-423 with the IPEX mutation Y373V; Y373V is a mutation of human IPEX patients, here put into the mouse protein; also called Y373V FoxP3^RBR-forkhead; source: E. coli BL21(DE3), purified (Ni-NTA, Superdex 200), HRV3C cleavage omitted; not shown: His6, N-terminal, kept; NusA, N-terminal, kept) TSTQGSVLPAWSAPREAPDGGLFAVRRHLWGSHGNSSFPEFFHNMDYFKYHNMRPPFTYATLIRWAILEAPERQRTLNEIYHWFTRMFAVFRNHPATWKNAIRHNLSLHKCFVRVESEKGAVWTVDEFEFRKKRSQRPNK | 4 | 
3 | NusA-tagged FoxP3^forkhead (domain or fragment, mouse, UniProt Q99JB6 336-423, looked up, FoxP3, mouse, forkhead domain, residues 336-423; NusA (60 kDa) kept for SEC-MALS; also called isolated FoxP3 forkhead; source: E. coli BL21(DE3), purified (Ni-NTA, Superdex 200), HRV3C cleavage omitted; not shown: His6, N-terminal, kept; NusA, N-terminal, kept) MRPPFTYATLIRWAILEAPERQRTLNEIYHWFTRMFAYFRNHPATWKNAIRHNLSLHKCFVRVESEKGAVWTVDEFEFRKKRSQRPNK | 2 | 
4 | FoxP3^forkhead C394S T368C (swap dimer-specific X-linking construct) (domain or fragment, mouse, UniProt Q99JB6 336-423, looked up, FoxP3, mouse, forkhead, residues 336-423 with C394S and T368C; source: E. coli BL21(DE3), purified (Ni-NTA, HRV3C cleavage, Superdex 75); not shown: His6, N-terminal, cleaved; NusA, N-terminal, cleaved) MRPPFTYATLIRWAILEAPERQRTLNEIYHWFCRMFAYFRNHPATWKNAIRHNLSLHKSFVRVESEKGAVWTVDEFEFRKKRSQRPNK |  | binding result [2]: binds
5 | GST-tagged Runx1 (residue 371-451) (domain or fragment, mouse, UniProt Q03347 371-451, looked up, cloned into pGEX-6P-1; also called Runx1^ΔN; source: E. coli BL21(DE3), purified (Ni-NTA, Superdex 200)) GSPSYHLYYGASAGSYQFSMVGGERSPPRILPPCTNASTGAALLNPSLPSQSDVVETEGSHSNSPTNMPPARLEEAVWRPY |  | binding result [3]: binds
6 | NusA-tagged FoxP3^ΔN (domain or fragment, mouse, UniProt Q99JB6 188-423, looked up, FoxP3, mouse, ZF, CC, RBR and forkhead, residues 188-423; source: E. coli BL21(DE3), purified (Ni-NTA, Superdex 200), HRV3C cleavage omitted; not shown: His6, N-terminal, kept; NusA, N-terminal, kept) GSYPLLANGVCKWPGCEKVFEEPEEFLKHCQADHLLDEKGKAQCLLQREVVQSLEQQLELEKEKLGAMQAHLAGKMALAKAPSVASMDKSSCCIVATSTQGSVLPAWSAPREAPDGGLFAVRRHLWGSHGNSSFPEFFHNMDYFKYHNMRPPFTYATLIRWAILEAPERQRTLNEIYHWFTRMFAYFRNHPATWKNAIRHNLSLHKCFVRVESEKGAVWTVDEFEFRKKRSQRPNK | 2 | 
